Assay results: US20230272054A1, “COMBINATION THERAPIES FOR THE TREATMENT AND PREVENTION OF BIOFILMS” (priority 2020, published 2023)
“Also recorded” adds a separate entry of the source. Where two headings read alike, the source gives them in different places.

What was measured:
HMGB1 full-length = details: CITED Xin et al., 2000; Table 1 lists under mHMGB1, p605 says full-length HMGB1; cited from earlier work
[1] = target: T1, HUNTHI, native histone-like protein HU (DNABII protein) of nontypeable Haemophilus influenzae (nontypeable Haemophilus influenzae …, UniProt P43722 1-90); experiment: SPR (Biacore); mHMGB1 immobilised, HUNTHI injected; the text value differs from Table 1 (103)
T1 sequence: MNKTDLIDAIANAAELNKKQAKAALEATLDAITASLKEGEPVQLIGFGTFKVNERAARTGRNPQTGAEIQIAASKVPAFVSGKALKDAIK

[2] = target: T2, IHFNTHI, native integration host factor (DNABII protein) of nontypeable Haemophilus influenzae (nontypeable Haemophilus influenzae …, UniProt P43723 1-96; P43724 1-94)
T2 sequence 1: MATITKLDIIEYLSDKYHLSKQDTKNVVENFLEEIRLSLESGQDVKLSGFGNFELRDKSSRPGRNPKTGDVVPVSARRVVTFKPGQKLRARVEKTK
T2 sequence 2: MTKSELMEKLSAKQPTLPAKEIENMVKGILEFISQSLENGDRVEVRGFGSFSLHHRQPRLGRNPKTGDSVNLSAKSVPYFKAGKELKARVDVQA

[3] = target: T1, HUNTHI, native histone-like protein HU …
HJ DNA = experiment: Electrophoretic mobility shift assay (EMSA), binding to HJ DNA; details: 20 nM 6-carboxyfluorescein HJ DNA, 50-500 nM protein, non-denaturing PAGE
Protocol: Arrows indicate the HJ DNA-protein complex.
FIG. 11A provides that NEM-modified rHMGB1 was confirmed by triton acetic acid urea gel (TAU gel). […] Arrows indicate the HJ DNA-protein complex.
Electrophoretic mobility shift assay (EMSA): EMSA was performed as previously described (Devaraj et al., 2019).

[4] = Inflammatory cell recruitment into lungs of B. cenocepacia-challenged mice (H&E, flow cytometry of BAL); type: in vivo, C57BL/6 mice; details: B. cenocepacia-challenged mice, 0.2 nmol, 72 hpi
neutrophils in BAL = experiment: as above; type: in vivo, C57BL/6 mice; details: B. cenocepacia-infected and simultaneously treated, 0.2 nmol, 18 hpi
E. faecium biofilms = experiment: Disruption of 24 h E. faecium biofilms in vitro (CLSM, COMSTAT average thickness); details: 24 h biofilms, 1 h incubation; non-bactericidal dose
[5] = system: eDNA lattice within K. pneumoniae biofilms; experiment: Visualization of eDNA lattice structure within K. pneumoniae biofilms (immunofluorescence, CLSM); type: cell-based, Klebsiella pneumoniae; details: 24 h K. pneumoniae biofilms, 200 nM protein, 16 h
Source text: Per the model as disclosed herein, HMGB1 would compete with DNABII proteins, wherein instead of stabilization, HMGB1 would de-stabilize these HJ-like structures and consequently disrupt the biofilm.

B. cenocepacia = experiment: Murine model of lung infection by B. cenocepacia, bacterial burden; details: 0.2 nmol i.t. at 24 hpi; 72 hpi; α-EF-Tu labeling
Protocol: Intratracheal challenge of the murine lung with B. cenocepacia and treatment with HMGB1 isoforms: B. cenocepacia strain K56-2, was cultured in LB broth (Difco, Md.) at 37° C. overnight at 200 rpm. Bacterial concentration was adjusted before each experiment based on OD at 600 nm. C57BL/6 mice were infected intratracheally (i.t.) with 10^7 colony forming units (CFU) of B. cenocepacia. […] Animals were euthanized 24 or 48 hpi, and bronchoalveolar lavage (BAL) was collected with 1 ml of PBS plus 1 mM EDTA. […] The slides were permeabilized with 0.5% Triton X-100 for 10 minutes, blocked with 10% normal goat serum (Abcam) for 30 minutes and stained with a monoclonal antibody against E. coli Elongation Factor-Tu (α-EF-Tu; cross reacts with B. cenocepacia) (LSBio) overnight to label B. cenocepacia. The samples were then stained with goat α-mouse IgG Alexa Fluor 488 (Abcam) for 1 h at RT, mounted with fluoroshield media with DAPI (Abcam), visualized via the Nikon Eclipse Ti at 40× magnification (Nikon Instrument Inc. Americas) and analyzed by ImageJ software (NIH). To enumerate bacterial burden, the animals were euthanized 18 or 72 hpi, bronchoalveolar lavage was collected with 1 ml of PBS plus 1 mM EDTA, an aliquot of BAL was serially diluted and plated on LB agar. […] Neither animals nor samples were excluded from evaluation in any study.

NTHI biofilms = experiment: Disruption of NTHI biofilms in the middle ears of chinchillas with experimental otitis media; type: in vivo, chinchilla (Chinchilla lanigera); details: 200 nM mHMGB1 and/or 342 nM Fabs
Protocol: As a negative control, an equivalent volume of sterile saline was delivered. One day after receipt of the second therapeutic dose, all animals were sacrificed and NTHI within the middle ear biofilms was enumerated. The relative amount of mucosal biofilm and mucosal inflammation were also qualitatively assessed.
First, effectiveness of single treatment was evaluated. To this end, a subset of animals in each cohort was sacrificed one day after receipt of a single therapeutic dose (FIG. 16H) whereas the remaining animals in each cohort were sacrificed 24 h after receipt of a second treatment.
Chinchilla model of experimental otitis media (OM): Adult chinchillas (Chinchilla lanigera) were obtained from Rauscher's Chinchilla Ranch, LLC. These outbred, non-specific pathogen-free animals were randomly divided into cohorts based on body weight and both male and female animals were enrolled. […] A concentration of 342 nM was based on prior studies wherein 5 μg intact IgG per 0.1 ml volume was injected into the middle ears of chinchillas (Goodman et al., 2011; Novotny et al., 2016; and Novotny et al., 2019).
Disruption of NTHI biofilms resident within the middle ears of chinchillas with experimental OM: Both middle ears of each animal were challenged with 1000 CFU NTHI strain 86-028NP by direct injection to induce experimental OM. Four days later, NTHI mucosal biofilms fill >50% of the middle ear (Novotny et al., 2011). […] To determine the outcome of treatment, animals were sacrificed one day after completion of antibody therapy, images of mucosal biofilms captured with a Zeiss SV6 dissecting microscope, then mucosal biofilms and middle ear mucosa collected, homogenized and plated on to chocolate agar to semi-quantitate the non-planktonic bacterial load within the middle ear (Goodman et al., 2011). […] As an additional assessment, the amount of biofilm in each middle ear was qualitatively determined. […] For both quantitation of bacterial load and qualitative assessment of mucosal biofilm, each middle ear was considered independent.

UPEC biofilms = experiment: Disruption of 24 h UPEC biofilms in vitro (CLSM, COMSTAT average thickness); details: mHMGB1 200 nM, 16 h
[6] = system: pro-inflammatory and anti-inflammatory cytokines; experiment: Quantitation of cytokines in middle ear fluids (cytometric bead array); type: in vivo, chinchilla (Chinchilla lanigera); details: six days after NTHI challenge, one day after completion of treatment
Protocol: Quantitation of cytokines in middle ear fluids: To quantitate cytokines in middle ear fluids (MEF), a BD™ Cytometric Bead Array was performed with fluids collected at the time of animal sacrifice. With BD™ human-specific Flex Sets, each MEF was individually examined for relative quantity of IL-1β, IL-4, IL-6, IL-8, IL-10, IL12-p70, IL-13, IL-17A, TNF or IFNγ according to manufacturer's instructions. MEFs from each animal were assayed individually. Data were captured on a BD ACCURI™ C6 cytometer (BD Biosciences) and analyzed with FlowJo software (FlowJo, LLC). The concentration of cytokines in each MEF was determined using a standard curve and calculated using GraphPad Prism software.

[7] = system: biofilms formed by UPEC, B. cenocepacia, NTHI, Enterobacter spp, S. aureus, K. pneumoniae, A. baumanii, P. aeruginosa, E. faecium; experiment: Disruption of 24 h bacterial biofilms in vitro by HMGB1 isoforms (LIVE/DEAD stain, CLSM, COMSTAT average thickness); details: 24 h biofilms of nine pathogens; 200 nM protein, 16 h (S. aureus 800 nM rHMGB1; E. faecium 800 nM, 1 h)
Human neutrophils = experiment: NET formation by neutrophils incubated with HMGB1 isoforms (CLSM); type: cell-based; details: 200 nM protein, 3.5 h
Protocol: Neutrophils were fixed, then labeled as described above to visualize the NETs.
Visualization of NETs structure upon incubation of neutrophils with various isoforms of HMGB1: Human neutrophils were isolated from blood using the EASYSEP™ isolation kit (Stemcell Technologies Inc.). […] NETs were fixed in formalin, blocked with 10% normal goat serum (Life Technologies), and labeled with α-dsDNA monoclonal antibody (1 μg), and α-neutrophil elastase polyclonal antibody (1 μg) or naive rabbit and mouse isotype controls (1 μg) in 200 μl PBS for 16 h hours at 4° C. NETs were washed with PBS and incubated for 1 h with 1:200 dilution goat α-rabbit IgG conjugated to ALEXAFLUOR® 594, goat α-mouse IgG conjugated to ALEXAFLUOR® 488, and 1:500 dilution wheat germ agglutinin conjugated to ALEXAFLUOR® 350 (PMN membrane stain). NETs were imaged with a Zeiss LSM 800 confocal microscope (Carl Zeiss Inc.) and rendered with Zeiss Zen software.

HJ DNA (cited)
Kd (HMGB1 full-length): 10 nM

B1: mHMGB1 (C45S), recombinant human HMGB1 with an engineered single amino acid mutation C45S (other)
chain: MGKGDPKKPRGKMSSYAFFVQTCREEHKKKHPDASVNFSEFSKKSSERWKTMSAKEKGKFEDMAKADKARYEREMKTYIPPKGETKKKFKDPNAPKRPPSAFFLFCSEYRPKIKGEHPGLSIGDVAKKLGEMWNNTAADDKQPYEKKAAKLKEKYEKDIAAYRAKGKPDAAKKGVVKAEKSKKKKEEEEGEEDEEDEEEEEDEEDEDEEEDDDDE
notes: also called modified HMGB1
Kd [1]: 104 nM
Kd [2]: 579 nM
Kd [3]: 103 nM

B2: mHMGB1: recombinant human HMGB1 with engineered single amino acid mutation C45S, SEQ ID NO: 52 (protein)
chain: MGKGDPKKPRGKMSSYAFFVQTCREEHKKKHPDASVNFSEFSKKSSERWKTMSAKEKGKFEDMAKADKARYEREMKTYIPPKGETKKKFKDPNAPKRPPSAFFLFCSEYRPKIKGEHPGLSIGDVAKKLGEMWNNTAADDKQPYEKKAAKLKEKYEKDIAAYRAKGKPDAAKKGVVKAEKSKKKKEEEEGEEDEEDEEEEEDEEDEDEEEDDDDE
modifications: mHMGB1 (C45S)
binding to HJ DNA (EMSA) (HJ DNA): maintained its ability to bind HJ DNA; also recorded: retained its ability to bind to HJ DNA
infiltration of inflammatory cells into lungs (H&E) [4]: no signs of inflammation
neutrophils in BAL (flow cytometry) (neutrophils in BAL): eliminated the pro-inflammatory activity; also recorded: significant reduction of neutrophils in BAL compared to those treated with rHMGB1
dose required to achieve a similar reduction in biofilm average thickness, E. faecium (E. faecium biofilms): required a higher dose
biofilm bacteria (FilmTracer FM 4-64) [5]: substantial reduction in biofilm bacteria
web-like eDNA lattice structure within biofilm [5]: disruption of the web-like structure; also recorded: notably disrupted
B. cenocepacia stained within the lung tissue (B. cenocepacia): significantly reduced bacterial load
middle ears that cleared NTHI / culture-negative (NTHI biofilms; 24 h after one dose, 6 middle ears): 50%
NTHI in middle ears after two doses (NTHI biofilms; 24 h after second dose): further reduced
relative amount of remaining NTHI mucosal biofilm (NTHI biofilms; one or two doses): highly effective
UPEC biofilm disruption in the presence of CbpA (negative control) (UPEC biofilms): could still disrupt UPEC biofilms
UPEC biofilm disruption in the presence of exogenously added RuvA (UPEC biofilms; competitor dose-dependent): lost in the presence of competitors; also recorded: unable to disrupt biofilms formed by UPEC
IL-10 in middle ear fluids [6]: significantly elevated concentration; also recorded: statistically significant increase
biofilm average thickness compared to control [7]: significantly disrupted bacterial biofilms; also recorded: fully retained the anti-biofilm activity
induction of NET formation by neutrophils (Human neutrophils): intertwined NETs specifically formed; also recorded: more strongly induced NET formation
